Reference: US20180273639A1 (YEDA RESEARCH AND DEVELOPMENT, published 2018)
Blank lines part the entries; values can stand above or below the binder they belong to.

Columns and labels:
MmQSOX1Erv = biological target: T1, MmQSOX1Erv (Mus musculus, UniProt Q8BND5 289-550, FAD cofactor bound); experiment: analytical size-exclusion chromatography
T1 construct: also called MmQSOX1 Erv module
T1 sequence: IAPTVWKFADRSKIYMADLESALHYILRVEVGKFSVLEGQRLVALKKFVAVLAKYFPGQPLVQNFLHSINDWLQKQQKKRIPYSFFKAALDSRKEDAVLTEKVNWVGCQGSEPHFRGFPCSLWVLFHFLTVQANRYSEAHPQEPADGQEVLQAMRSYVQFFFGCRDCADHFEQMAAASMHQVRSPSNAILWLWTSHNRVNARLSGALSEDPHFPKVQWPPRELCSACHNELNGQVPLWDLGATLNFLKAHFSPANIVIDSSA
Protocol: (§1) MsQSOX1-antibody complexes were injected after a 30 min co-incubation at 4° C. Elution of proteins was monitored by absorbance at 280 nm.

MmQSOX1Trx [1] = biological target: T2, MmQSOX1Trx (Mus musculus, UniProt Q8BND5 36-275); experiment: analytical size-exclusion chromatography
T2 construct: Residues 36-275 of Mus musculus QSOX1, made in E. coli, purified on Ni-NTA; also called MmQSOX1Trv; Trx module of MmQSOX1
T2 sequence: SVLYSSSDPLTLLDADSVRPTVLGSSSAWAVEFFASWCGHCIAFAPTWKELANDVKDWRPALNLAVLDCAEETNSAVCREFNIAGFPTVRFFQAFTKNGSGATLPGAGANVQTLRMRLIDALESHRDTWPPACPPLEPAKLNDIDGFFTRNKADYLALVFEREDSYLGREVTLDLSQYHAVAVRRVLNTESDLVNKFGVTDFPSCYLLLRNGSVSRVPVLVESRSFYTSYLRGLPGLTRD
Protocol: as §1

MmQSOX1Trx [2] = biological target: T2, MmQSOX1Trx; experiment: complex purified by size-exclusion chromatography
Protocol: A stop codon was inserted after the CH1 segment of the heavy chain, to obtain a coding sequence for a Fab fragment. […] Prior to crystallization the complexes were concentrated to 10 mg/ml.

[3] = biological target: MmQSOX1 TLPG(138-141)VFPV (Mus musculus); experiment: cell-based or functional assay
[4] = biological target: MmQSOX1 A116P and TLPG(138-141)VFPV (Mus musculus); experiment: cell-based or functional assay
[5] = biological target: T3, Homo sapiens QSOX1 (recombinant HsQSOX1) (Homo sapiens, UniProt O00391 33-546, limits assumed); experiment: cell-based or functional assay
T3 sequence: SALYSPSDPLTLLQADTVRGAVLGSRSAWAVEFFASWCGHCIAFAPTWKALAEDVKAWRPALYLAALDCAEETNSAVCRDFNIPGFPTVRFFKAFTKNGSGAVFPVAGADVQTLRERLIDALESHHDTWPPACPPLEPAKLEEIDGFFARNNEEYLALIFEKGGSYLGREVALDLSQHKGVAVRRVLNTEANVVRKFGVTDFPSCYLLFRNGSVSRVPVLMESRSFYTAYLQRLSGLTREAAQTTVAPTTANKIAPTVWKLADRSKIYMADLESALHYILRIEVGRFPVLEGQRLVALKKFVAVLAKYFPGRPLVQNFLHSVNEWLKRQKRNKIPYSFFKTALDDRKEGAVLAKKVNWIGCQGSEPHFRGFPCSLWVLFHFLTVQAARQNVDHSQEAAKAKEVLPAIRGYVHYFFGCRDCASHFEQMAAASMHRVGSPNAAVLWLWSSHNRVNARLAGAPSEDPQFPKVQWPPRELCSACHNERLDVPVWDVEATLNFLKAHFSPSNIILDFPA

MmQSOX1 A116P = MmQSOX1 A116P (Mus musculus); experiment: cell-based or functional assay
biotinylated MmQSOX1Trx = biological target: T4, biotinylated MmQSOX1Trx (Mus musculus, UniProt Q8BND5 36-275, Biotin on the lysine of the C-terminal AviTag (tag not in the letters); in early screening rounds pre-loaded with streptavidin-APC); experiment: yeast-surface display flow cytometry
T4 construct: Used for yeast-surface display; in the first screening rounds pre-loaded with streptavidin-APC in a 1:4 molar ratio; also called MmQSOX1Trx with AviTag; not shown: purification tag
T4 sequence: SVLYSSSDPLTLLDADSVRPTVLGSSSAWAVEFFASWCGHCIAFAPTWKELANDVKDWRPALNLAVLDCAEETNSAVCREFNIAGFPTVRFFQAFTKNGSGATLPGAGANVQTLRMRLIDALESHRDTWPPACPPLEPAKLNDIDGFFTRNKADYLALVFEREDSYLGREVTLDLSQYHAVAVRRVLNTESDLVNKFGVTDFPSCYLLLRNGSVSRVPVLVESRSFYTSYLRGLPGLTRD

binding result (MmQSOX1Erv): no binding | binding result (MmQSOX1Trx [1]): binds
B1: MAb316.1 (antibody, V domains shown)
VH: QVQLQQSGPELVKPGASVKISCKASGYSFTSYYIHWVKQRPGQGLEWIGWIYPGSYNTEYSEKFKGKATLTADTSSSTAYMQLSSLTSEDSAVYYCARSEDWFAYWGQGTLVTVS
VL: QIVLTQSPAIMSASPGEKVTISCSASSSVSYMYWYHQKPGSSPKPWIYRTSNLASGVPARFSGSGSGTSYSLTISSMEAEDAATYYCQQYHSYPLTFGAGTKLELK
notes: Hybridoma antibody from QSOX1 knock-out mice immunised with MmQSOX1

binding result (MmQSOX1Trx [2]): binds
B2: Fab316.1 (Fab, V domains shown)
VH: QVQLQQSGPELVKPGASVKISCKASGYSFTSYYIHWVKQRPGQGLEWIGWIYPGSYNTEYSEKFKGKATLTADTSSSTAYMQLSSLTSEDSAVYYCARSEDWFAYWGQGTLVTVS
VL: QIVLTQSPAIMSASPGEKVTISCSASSSVSYMYWYHQKPGSSPKPWIYRTSNLASGVPARFSGSGSGTSYSLTISSMEAEDAATYYCQQYHSYPLTFGAGTKLELK
notes: also called Fab fragment of MAb316.1

percent inhibition of enzyme activity, oxygen consumption assay [3]: ~50% | percent inhibition of enzyme activity, oxygen consumption assay [4]: 100% | percent inhibition of enzyme activity, oxygen consumption assay [5]: 100% | percent inhibition of enzyme activity, oxygen consumption assay (MmQSOX1 A116P): ~60%
B3: MAb492.1 (antibody, V domains shown)
VH: QVQLKQSGPGLVAPSQSLSITCTVSGFSLTGYGVNWVRQSPGKGLEWLGMIWGDGRTDYKSALKSRLSITKDNSKSQVFLKMNSLQTDDTARYFCASDYYGSGSFAYWGQGTLVTVSA
VL: DVVMTQTHKFMSTSVGDRVSITCKASQDVSTAVAWYQQKSGQSPKLLIHSASYRYTGVPDRFTGSGSGTDFTFTISSVQAEDLAVYYCQQHYSIPLTFGAGTKLELK

binding result (biotinylated MmQSOX1Trx): binds
B4: scFv492.1 S93A Y99S Y100K G101D S102P D58E T31G H49S S50M Y52Q (scFv, V domains shown)
VH: QVQLKQSGPGLVAPSQSLSITCTVSGFSLTGYGVNWVRQSPGKGLEWLGMIWGDGRTEYKSALKSRLSITKDNSKSQVFLKMNSLQTDDTARYFCASDSKDPGSFAYWGQGTLVTVSA
VL: DVVMTQTHKFMSTSVGDRVSITCKASQDVSGAVAWYQQKSGQSPKLLISMASQRYTGVPDRFTGSGSGTDFTFTISSVQAEDLAVYYCQQHYAIPLTFGAGTKLELK
notes: also called template d; not shown: scFv linker and domain order; yeast display fusion partner and cMyc tag (pETCON)
